Source: publication doi:10.1101/2025.04.13.648610, “Catalytic Mechanism and Differential Alarmone Regulation of a Conserved Stringent Nucleosidase” (bioRxiv, 2025)

B1: PpnN (wild type), nucleosidase of Escherichia coli (enzyme, UniProt P0ADR8 1-454, looked up)
chain: MITHISPLGSMDMLSQLEVDMLKRTASSDLYQLFRNCSLAVLNSGSLTDNSKELLSRFENFDINVLRRERGVKLELINPPEEAFVDGRIIRALQANLFAVLRDILFVYGQIHNTVRFPNLNLDNSVHITNLVFSILRNARALHVGEAPNMVVCWGGHSINENEYLYARRVGNQLGLRELNICTGCGPGAMEAPMKGAAVGHAQQRYKDSRFIGMTEPSIIAAEPPNPLVNELIIMPDIEKRLEAFVRIAHGIIIFPGGVGTAEELLYLLGILMNPANKDQVLPLILTGPKESADYFRVLDEFVVHTLGENARRHYRIIIDDAAEVARQMKKSMPLVKENRRDTGDAYSFNWSMRIAPDLQMPFEPSHENMANLKLYPDQPVEVLAADLRRAFSGIVAGNVKEVGIRAIEEFGPYKINGDKEIMRRMDDLLQGFVAQHRMKLPGSAYIPCYEICT
notes: PpnN (previously YgdH), nucleosidase, Escherichia coli; PAG1 domain 1-150, catalytic domain 151-329, PAG2 domain 330-454; also called wt PpnN; PpnNwt; source: E. coli BL21 (DE3) ΔppnN (ppnN::kan), purified (Ni-NTA, Superdex 200 for biochemistry; HisTrap, SourceQ, Superdex 200 Increase for crystallisation); not shown: His6, N-terminal, kept
B2: PpnN E264A (enzyme, Escherichia coli, UniProt P0ADR8 1-454, looked up)
chain: MITHISPLGSMDMLSQLEVDMLKRTASSDLYQLFRNCSLAVLNSGSLTDNSKELLSRFENFDINVLRRERGVKLELINPPEEAFVDGRIIRALQANLFAVLRDILFVYGQIHNTVRFPNLNLDNSVHITNLVFSILRNARALHVGEAPNMVVCWGGHSINENEYLYARRVGNQLGLRELNICTGCGPGAMEAPMKGAAVGHAQQRYKDSRFIGMTEPSIIAAEPPNPLVNELIIMPDIEKRLEAFVRIAHGIIIFPGGVGTAEALLYLLGILMNPANKDQVLPLILTGPKESADYFRVLDEFVVHTLGENARRHYRIIIDDAAEVARQMKKSMPLVKENRRDTGDAYSFNWSMRIAPDLQMPFEPSHENMANLKLYPDQPVEVLAADLRRAFSGIVAGNVKEVGIRAIEEFGPYKINGDKEIMRRMDDLLQGFVAQHRMKLPGSAYIPCYEICT
notes: PpnN (previously YgdH), nucleosidase, Escherichia coli, with E264A; Made by quick-change mutagenesis on pCA24N-ppnN (wt); also called E264A 4:4 PpnN; E264A variant; source: E. coli BL21 (DE3) ΔppnN (ppnN::kan), purified (Ni-NTA, Superdex 200 for biochemistry; HisTrap, SourceQ, Superdex 200 Increase for crystallisation)
B3: PpnN H157A (enzyme, Escherichia coli, UniProt P0ADR8 1-454, looked up)
chain: MITHISPLGSMDMLSQLEVDMLKRTASSDLYQLFRNCSLAVLNSGSLTDNSKELLSRFENFDINVLRRERGVKLELINPPEEAFVDGRIIRALQANLFAVLRDILFVYGQIHNTVRFPNLNLDNSVHITNLVFSILRNARALHVGEAPNMVVCWGGASINENEYLYARRVGNQLGLRELNICTGCGPGAMEAPMKGAAVGHAQQRYKDSRFIGMTEPSIIAAEPPNPLVNELIIMPDIEKRLEAFVRIAHGIIIFPGGVGTAEELLYLLGILMNPANKDQVLPLILTGPKESADYFRVLDEFVVHTLGENARRHYRIIIDDAAEVARQMKKSMPLVKENRRDTGDAYSFNWSMRIAPDLQMPFEPSHENMANLKLYPDQPVEVLAADLRRAFSGIVAGNVKEVGIRAIEEFGPYKINGDKEIMRRMDDLLQGFVAQHRMKLPGSAYIPCYEICT
notes: PpnN (previously YgdH), nucleosidase, Escherichia coli, with H157A; Made by quick-change mutagenesis on pCA24N-ppnN (wt); also called H157A variant; source: E. coli BL21 (DE3) ΔppnN, purified (Ni-NTA, Superdex 200)
B4: PpnN E223A (enzyme, Escherichia coli, UniProt P0ADR8 1-454, looked up)
chain: MITHISPLGSMDMLSQLEVDMLKRTASSDLYQLFRNCSLAVLNSGSLTDNSKELLSRFENFDINVLRRERGVKLELINPPEEAFVDGRIIRALQANLFAVLRDILFVYGQIHNTVRFPNLNLDNSVHITNLVFSILRNARALHVGEAPNMVVCWGGHSINENEYLYARRVGNQLGLRELNICTGCGPGAMEAPMKGAAVGHAQQRYKDSRFIGMTEPSIIAAAPPNPLVNELIIMPDIEKRLEAFVRIAHGIIIFPGGVGTAEELLYLLGILMNPANKDQVLPLILTGPKESADYFRVLDEFVVHTLGENARRHYRIIIDDAAEVARQMKKSMPLVKENRRDTGDAYSFNWSMRIAPDLQMPFEPSHENMANLKLYPDQPVEVLAADLRRAFSGIVAGNVKEVGIRAIEEFGPYKINGDKEIMRRMDDLLQGFVAQHRMKLPGSAYIPCYEICT
notes: PpnN (previously YgdH), nucleosidase, Escherichia coli, with E223A; Made by quick-change mutagenesis on pCA24N-ppnN (wt); also called E223A variant; source: E. coli BL21 (DE3) ΔppnN, purified (Ni-NTA, Superdex 200)
B5: PpnN E263A (enzyme, Escherichia coli, UniProt P0ADR8 1-454, looked up)
chain: MITHISPLGSMDMLSQLEVDMLKRTASSDLYQLFRNCSLAVLNSGSLTDNSKELLSRFENFDINVLRRERGVKLELINPPEEAFVDGRIIRALQANLFAVLRDILFVYGQIHNTVRFPNLNLDNSVHITNLVFSILRNARALHVGEAPNMVVCWGGHSINENEYLYARRVGNQLGLRELNICTGCGPGAMEAPMKGAAVGHAQQRYKDSRFIGMTEPSIIAAEPPNPLVNELIIMPDIEKRLEAFVRIAHGIIIFPGGVGTAAELLYLLGILMNPANKDQVLPLILTGPKESADYFRVLDEFVVHTLGENARRHYRIIIDDAAEVARQMKKSMPLVKENRRDTGDAYSFNWSMRIAPDLQMPFEPSHENMANLKLYPDQPVEVLAADLRRAFSGIVAGNVKEVGIRAIEEFGPYKINGDKEIMRRMDDLLQGFVAQHRMKLPGSAYIPCYEICT
notes: PpnN (previously YgdH), nucleosidase, Escherichia coli, with E263A; Made by quick-change mutagenesis on pCA24N-ppnN (wt); also called E263A variant; source: E. coli BL21 (DE3) ΔppnN, purified (Ni-NTA, Superdex 200)
B6: PpnN K195A (enzyme, Escherichia coli, UniProt P0ADR8 1-454, looked up)
chain: MITHISPLGSMDMLSQLEVDMLKRTASSDLYQLFRNCSLAVLNSGSLTDNSKELLSRFENFDINVLRRERGVKLELINPPEEAFVDGRIIRALQANLFAVLRDILFVYGQIHNTVRFPNLNLDNSVHITNLVFSILRNARALHVGEAPNMVVCWGGHSINENEYLYARRVGNQLGLRELNICTGCGPGAMEAPMAGAAVGHAQQRYKDSRFIGMTEPSIIAAEPPNPLVNELIIMPDIEKRLEAFVRIAHGIIIFPGGVGTAEELLYLLGILMNPANKDQVLPLILTGPKESADYFRVLDEFVVHTLGENARRHYRIIIDDAAEVARQMKKSMPLVKENRRDTGDAYSFNWSMRIAPDLQMPFEPSHENMANLKLYPDQPVEVLAADLRRAFSGIVAGNVKEVGIRAIEEFGPYKINGDKEIMRRMDDLLQGFVAQHRMKLPGSAYIPCYEICT
notes: PpnN (previously YgdH), nucleosidase, Escherichia coli, with K195A; Made by quick-change mutagenesis on pCA24N-ppnN (wt); source: E. coli BL21 (DE3) ΔppnN, purified (Ni-NTA, Superdex 200)
B7: PpnN D49A (enzyme, Escherichia coli, UniProt P0ADR8 1-454, looked up)
chain: MITHISPLGSMDMLSQLEVDMLKRTASSDLYQLFRNCSLAVLNSGSLTANSKELLSRFENFDINVLRRERGVKLELINPPEEAFVDGRIIRALQANLFAVLRDILFVYGQIHNTVRFPNLNLDNSVHITNLVFSILRNARALHVGEAPNMVVCWGGHSINENEYLYARRVGNQLGLRELNICTGCGPGAMEAPMKGAAVGHAQQRYKDSRFIGMTEPSIIAAEPPNPLVNELIIMPDIEKRLEAFVRIAHGIIIFPGGVGTAEELLYLLGILMNPANKDQVLPLILTGPKESADYFRVLDEFVVHTLGENARRHYRIIIDDAAEVARQMKKSMPLVKENRRDTGDAYSFNWSMRIAPDLQMPFEPSHENMANLKLYPDQPVEVLAADLRRAFSGIVAGNVKEVGIRAIEEFGPYKINGDKEIMRRMDDLLQGFVAQHRMKLPGSAYIPCYEICT
notes: PpnN (previously YgdH), nucleosidase, Escherichia coli, with D49A; Made by quick-change mutagenesis on pCA24N-ppnN (wt); source: E. coli BL21 (DE3) ΔppnN, purified (Ni-NTA, Superdex 200)
B8: PpnN T261A (enzyme, Escherichia coli, UniProt P0ADR8 1-454, looked up)
chain: MITHISPLGSMDMLSQLEVDMLKRTASSDLYQLFRNCSLAVLNSGSLTDNSKELLSRFENFDINVLRRERGVKLELINPPEEAFVDGRIIRALQANLFAVLRDILFVYGQIHNTVRFPNLNLDNSVHITNLVFSILRNARALHVGEAPNMVVCWGGHSINENEYLYARRVGNQLGLRELNICTGCGPGAMEAPMKGAAVGHAQQRYKDSRFIGMTEPSIIAAEPPNPLVNELIIMPDIEKRLEAFVRIAHGIIIFPGGVGAAEELLYLLGILMNPANKDQVLPLILTGPKESADYFRVLDEFVVHTLGENARRHYRIIIDDAAEVARQMKKSMPLVKENRRDTGDAYSFNWSMRIAPDLQMPFEPSHENMANLKLYPDQPVEVLAADLRRAFSGIVAGNVKEVGIRAIEEFGPYKINGDKEIMRRMDDLLQGFVAQHRMKLPGSAYIPCYEICT
notes: PpnN (previously YgdH), nucleosidase, Escherichia coli, with T261A; Made by quick-change mutagenesis on pCA24N-ppnN (wt); also called T261A variant; source: E. coli BL21 (DE3) ΔppnN, purified (Ni-NTA, Superdex 200)
B9: PpnN R241A (enzyme, Escherichia coli, UniProt P0ADR8 1-454, looked up)
chain: MITHISPLGSMDMLSQLEVDMLKRTASSDLYQLFRNCSLAVLNSGSLTDNSKELLSRFENFDINVLRRERGVKLELINPPEEAFVDGRIIRALQANLFAVLRDILFVYGQIHNTVRFPNLNLDNSVHITNLVFSILRNARALHVGEAPNMVVCWGGHSINENEYLYARRVGNQLGLRELNICTGCGPGAMEAPMKGAAVGHAQQRYKDSRFIGMTEPSIIAAEPPNPLVNELIIMPDIEKALEAFVRIAHGIIIFPGGVGTAEELLYLLGILMNPANKDQVLPLILTGPKESADYFRVLDEFVVHTLGENARRHYRIIIDDAAEVARQMKKSMPLVKENRRDTGDAYSFNWSMRIAPDLQMPFEPSHENMANLKLYPDQPVEVLAADLRRAFSGIVAGNVKEVGIRAIEEFGPYKINGDKEIMRRMDDLLQGFVAQHRMKLPGSAYIPCYEICT
notes: PpnN (previously YgdH), nucleosidase, Escherichia coli, with R241A; Made by quick-change mutagenesis on pCA24N-ppnN (wt); also called R241A variant; source: E. coli BL21 (DE3) ΔppnN, purified (Ni-NTA, Superdex 200)
B10: PpnN M190A (enzyme, Escherichia coli, UniProt P0ADR8 1-454, looked up)
chain: MITHISPLGSMDMLSQLEVDMLKRTASSDLYQLFRNCSLAVLNSGSLTDNSKELLSRFENFDINVLRRERGVKLELINPPEEAFVDGRIIRALQANLFAVLRDILFVYGQIHNTVRFPNLNLDNSVHITNLVFSILRNARALHVGEAPNMVVCWGGHSINENEYLYARRVGNQLGLRELNICTGCGPGAAEAPMKGAAVGHAQQRYKDSRFIGMTEPSIIAAEPPNPLVNELIIMPDIEKRLEAFVRIAHGIIIFPGGVGTAEELLYLLGILMNPANKDQVLPLILTGPKESADYFRVLDEFVVHTLGENARRHYRIIIDDAAEVARQMKKSMPLVKENRRDTGDAYSFNWSMRIAPDLQMPFEPSHENMANLKLYPDQPVEVLAADLRRAFSGIVAGNVKEVGIRAIEEFGPYKINGDKEIMRRMDDLLQGFVAQHRMKLPGSAYIPCYEICT
notes: PpnN (previously YgdH), nucleosidase, Escherichia coli, with M190A; Made by quick-change mutagenesis on pCA24N-ppnN (wt); also called M190A variant; source: E. coli BL21 (DE3) ΔppnN, purified (Ni-NTA, Superdex 200)

Molecular target: the molecule itself
Assay: crystal structure; wt PpnN co-crystallised with pppGpp (3:4 PpnN; pppGpp on three of four subunits; R5P and guanine in the active sites); 6-8 mg/ml PpnN, 1-2 mM ligand

Protein	stoichiometry N
B1	4

Molecular target: the molecule itself
Assay: crystal structure; PpnN E264A co-crystallised with pppGpp and 2 mM GMP (E264A 4:4 PpnN; four pppGpp and four R5P bound); 6-8 mg/ml PpnN; 3.5 Å

Protein	stoichiometry N
B2	4

Molecular target: the molecule itself
Assay: SEC; Superdex 200 10/300 GL in 50 mM Tris-HCl pH 7.5, 200 mM NaCl, 5% glycerol, 5 mM BME; elution profiles of variants compared with wt PpnN

Protein	stoichiometry N
B3	4
B4	4
B5	4
B6	4
B7	4
B8	4
B9	4
B10	4
